From article PMC3088358

Legend:
[1] = target: recombinant human BMP1 protein (human) (UniProt P13497); experiment: enzyme inhibition kinetics
[2] = target: Xenopus Crescent-Flag (Xenopus laevis); experiment: SPR

Substance	Ki [1] [nM]	Kd [2] [nM]
Xenopus Crescent-Flag (natural protein)	59	–
recombinant human BMP1 protein (from UniProt P13497 23-986) (enzyme)	–	11
